The assay concerns the target ITGA2 protein on the surface of human tumor cells (HuCCT1, A431) (human) (UniProt P17301). In words: cell-based or functional assay.

ITGA2 protein on the surface of human tumor cells (HuCCT1, A431) (human), sequence (P17301 30-1181): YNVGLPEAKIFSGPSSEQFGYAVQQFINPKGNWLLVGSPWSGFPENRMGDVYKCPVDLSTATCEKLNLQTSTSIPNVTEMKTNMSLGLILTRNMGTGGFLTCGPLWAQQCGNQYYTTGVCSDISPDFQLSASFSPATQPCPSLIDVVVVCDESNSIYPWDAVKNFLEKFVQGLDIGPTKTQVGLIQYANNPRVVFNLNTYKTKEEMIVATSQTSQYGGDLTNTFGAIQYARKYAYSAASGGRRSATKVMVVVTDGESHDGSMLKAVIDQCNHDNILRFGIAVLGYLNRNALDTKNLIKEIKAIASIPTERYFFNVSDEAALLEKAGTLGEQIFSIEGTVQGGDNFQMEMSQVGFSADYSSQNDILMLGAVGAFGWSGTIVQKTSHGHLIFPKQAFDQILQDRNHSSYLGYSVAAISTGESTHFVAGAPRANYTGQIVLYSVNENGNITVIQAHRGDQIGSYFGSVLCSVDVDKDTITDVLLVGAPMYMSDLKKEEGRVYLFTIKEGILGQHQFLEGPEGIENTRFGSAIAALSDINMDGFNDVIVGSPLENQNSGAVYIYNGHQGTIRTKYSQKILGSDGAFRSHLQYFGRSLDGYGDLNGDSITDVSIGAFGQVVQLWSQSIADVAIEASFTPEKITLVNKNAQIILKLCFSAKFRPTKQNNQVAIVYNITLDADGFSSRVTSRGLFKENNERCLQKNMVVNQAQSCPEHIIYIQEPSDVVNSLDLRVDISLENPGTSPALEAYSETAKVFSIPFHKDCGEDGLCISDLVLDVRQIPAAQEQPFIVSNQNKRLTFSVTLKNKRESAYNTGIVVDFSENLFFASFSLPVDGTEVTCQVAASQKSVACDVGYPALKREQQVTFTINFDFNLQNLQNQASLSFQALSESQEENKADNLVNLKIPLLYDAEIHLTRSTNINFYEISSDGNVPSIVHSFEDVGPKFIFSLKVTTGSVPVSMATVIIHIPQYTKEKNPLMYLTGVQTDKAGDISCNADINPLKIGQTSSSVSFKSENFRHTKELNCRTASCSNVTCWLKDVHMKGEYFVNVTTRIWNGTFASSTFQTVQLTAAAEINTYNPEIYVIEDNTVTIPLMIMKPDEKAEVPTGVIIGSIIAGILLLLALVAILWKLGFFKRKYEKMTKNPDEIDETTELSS

Substance Vatelizumab-ve-MMAE (antibody) gave an A431 cell killing IC50 of 0.08 nM and a HuCC-T1 cell killing IC50 of 0.89 nM.

The record behind these values is patent EP4545563A1, “ANTIBODIES TARGETING ITGA2 AND ANTIBODY-DRUG […]” (Foreseen Technology (Beijing) Co., Ltd., priority 2022, dated 2024).
